# Laboratory results from patent US20230416942A1 (YALE UNIVERSITY, published 2023).
# T1: CD302 (human, UniProt Q8IX05 23-168, limits assumed)
# T1 construct: Recombinant human protein in ELISA
# T1 sequence (looked up): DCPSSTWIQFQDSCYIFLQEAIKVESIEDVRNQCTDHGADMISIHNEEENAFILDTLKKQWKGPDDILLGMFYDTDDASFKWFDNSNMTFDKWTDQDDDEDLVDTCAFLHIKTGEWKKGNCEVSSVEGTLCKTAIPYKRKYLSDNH
# B1: CD302_Nb26 (Fc fusion)
# chain: QVQLQESGGGLVQAGGSLRLSCAASGNISFIGAMGWYRQAPGKEREFVAGINVGTNTYYADSVKGRFTISRDNAKNTVYLQMNSLKPEDTAVYYCAAYVFVSRIDLRYLVYWGQGTQVTVSS
# notes: Nanobody expressed and tested as Fc fusion (human IgG1); not shown: human IgG1 Fc (vector pCER243)
# B2: CD302_Nb28 (Fc fusion)
# chain: QVQLQESGGGLVQAGGSLRLSCAASGSISGVSGMGWYRQAPGKEREFVAGITTGTSTYYADSVKGRFTISRDNAKNTVYLQMNSLKPEDTAVYYCAAYANYVPSSRLYLRYWGQGTQVTVSS
# notes: as for B1
# B3: CD302_Nb30 (Fc fusion)
# chain: QVQLQESGGGLVQAGGSLRLSCAASGSISLATGMGWYRQAPGKEREFVAGISVGTSTYYADSVKGRFTISRDNAKNTVYLQMNSLKPEDTAVYYCAAIAWHPSGARSYLRYWGQGTQVTVSS
# notes: as for B1
# B4: CD302_Nb31 (Fc fusion)
# chain: QVQLQESGGGLVQAGGSLRLSCAASGTIFKSAGMGWYRQAPGKEREFVAGIAPGAITYYADSVKGRFTISRDNAKNTVYLQMNSLKPEDTAVYYCAALVADGRPYRYWGQGTQVTVSS
# notes: as for B1
# B5: CD302_Nb32 (Fc fusion)
# chain: QVQLQESGGGLVQAGGSLRLSCAASGTIFPDSSMGWYRQAPGKEREFVAGITTGANTYYADSVKGRFTISRDNAKNTVYLQMNSLKPEDTAVYYCAAYHVDRAVFRYWGQGTQVTVSS
# notes: as for B1
# B6: CD302_Nb33 (Fc fusion)
# chain: QVQLQESGGGLVQAGGSLRLSCAASGTISIIFAMGWYRQAPGKEREFVAGIGRGTTTYYADSVKGRFTISRDNAKNTVYLQMNSLKPEDTAVYYCAAHVFYDNVVQRHAYWGQGTQVTVSS
# notes: as for B1
# B7: CD302_Nb35 (Fc fusion)
# chain: QVQLQESGGGLVQAGGSLRLSCAASGTISRVFVMGWYRQAPGKERELVAGIGGGTSTYYADSVKGRFTISRDNAKNTVYLQMNSLKPEDTAVYYCAAILSDRVLFRYWGQGTQVTVSS
# notes: as for B1
# B8: CD3E_Nb2.73 (Fc fusion)
# chain: QVQLQESGGGLVQAGGSLRLSCAASGNISDITVMGWYRQAPGKEREFVAGINYGGSTNYADSVKGRFTISRDNAKNTVYLQMNSLKPEDTAVYYCAARYRYRYSAREFHDYWGQGTQVTVSS
# notes: as for B1
# B9: CD3E_Nb2.74 (Fc fusion)
# chain: QVQLQESGGGLVQAGGSLRLSCAASGTIFYASVMGWYRQAPGKEREFVAGITPGGSTNYADSVKGRFTISRDNAKNTVYLQMNSLKPEDTAVYYCAVYYRYSEGRIGGHAYWGQGTQVTVSS
# notes: as for B1
# B10: CD3E_Nb2.76 (Fc fusion)
# chain: QVQLQESGGGLVQAGGSLRLSCAASGNIFGNVVMGWYRQAPGKEREFVAGINNGGSTNYADSVKGRFTISRDNAKNTVYLQMNSLKPEDTAVYYCAVYYYYLTYHLYWGQGTQVTVSS
# notes: as for B1
# B11: CD3E_Nb2.77 (Fc fusion)
# chain: QVQLQESGGGLVQAGGSLRLSCAASGSISPVAVMGWYRQAPGKEREFVAAINYGANTYYADSVKGRFTISRDNAKNTVYLQMNSLKPEDTAVYYCAAATYAPYQRSGKLVYWGQGTQVTVSS
# notes: as for B1
# B12: CD3E_Nb2.79 (Fc fusion)
# chain: QVQLQESGGGLVQAGGSLRLSCAASGTISPWRVMGWYRQAPGKEREFVAGITPGTTTYYADSVKGRFTISRDNAKNTVYLQMNSLKPEDTAVYYCAVSAGASTPARYRLVYWGQGTQVTVSS
# notes: as for B1
# B13: CD3E_Nb2.80 (Fc fusion)
# chain: QVQLQESGGGLVQAGGSLRLSCAASGNISRRYVMGWYRQAPGKEREFVAGISGGSSTYYADSVKGRFTISRDNAKNTVYLQMNSLKPEDTAVYYCAVLISGNTPNAISHYYWGQGTQVTVSS
# notes: as for B1
# Target: T1, CD302
# Assay: ELISA, plate-coated recombinant human protein, nanobody-Fc
# Method: (§1) Recombinant human protein was diluted in PBS to a final concentration of 5 μg/mL and was immobilized on 96-well flat bottom MaxiSorp plates (Thermo Fisher Scientific) and placed at 4° C. overnight. Plates were washed three times with 225 μL ELISA wash buffer (PBS with 0.05% Tween 20) and 200 μL ELISA blocking buffer (PBS with 1% Casein) was added to the well. Plates were incubated with shaking for 2 hours at room temperature. ELISA blocking buffer was removed from the wells and appropriate dilutions of recombinant nanobodies in 100 μL ELISA blocking buffer was added to each well. Plates were incubated with shaking for 2 hours at room temperature. Plates were washed 3 times with 225 μL ELISA wash buffer and 1:5000 goat anti-human IgG HRP (Millipore Sigma) in 100 μL ELISA blocking buffer was added to the wells. Plates were incubated with shaking for 1 hour at room temperature. Plates were washed 6 times with 225 μL ELISA wash buffer. 50 μL TMB substrate (BD Biosciences) was added to the wells and plates were incubated for 15 minutes in the dark at room temperature. 50 μL 1 M sulfuric acid was added to the wells and absorbance at 450 nm was measured in a Synergy HTX Multi-Mode Microplate Reader (BioTek).
row,Binder,EC50
1,B1,8.5 nM
2,B2,0.684 nM
3,B3,2.21 nM
4,B4,1.26 nM
5,B5,0.49 nM
6,B6,2.26 nM
7,B7,0.654 nM

# Target: T2, CD3E (human, UniProt P07766 23-126)
# T2 construct: Recombinant human protein in ELISA
# Assay: as above
# Method: as §1
# T2 sequence (P07766 23-126 limits assumed): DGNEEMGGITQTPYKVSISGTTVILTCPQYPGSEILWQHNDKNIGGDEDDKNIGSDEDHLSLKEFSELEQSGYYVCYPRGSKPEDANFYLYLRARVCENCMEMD
row,Binder,EC50
1,B8,0.735 nM
2,B9,1.2 nM
3,B10,16.1 nM
4,B11,0.67 nM
5,B12,0.579 nM
6,B13,17.9 nM
